This passage reports stoichiometry N results from article PMC5976746.

Assay [1] deals with BG505 NFL (native flexibly linked) HIV-1 envelope glycoprotein trimer from CHO-M cells (HIV-1). Briefly: negative-stain electron microscopy; peak SEC fraction from pool Z; 2% uranyl formate, 2D class averages.
Assay [2] shares this target. Briefly: SEC; Superdex 200 (S200) after lectin-affinity column; UV absorbance at 280 nm. Background: Size exclusion chromatography separates by hydrodynamic size, large species first.
Assay [3] has the same target. Briefly: native gel or EMSA; blue-native PAGE of SEC fractions (F4-F9) of lectin-purified pool Z supernatant.
Assay [4] deals with BG505 NFL (native flexibly linked) HIV-1 envelope glycoprotein trimer from 293F cells (HIV-1). The experiment in a line: SEC; Superdex 200 (S200) after lectin-affinity column; UV absorbance at 280 nm.

Broadly, the stoichiometry N is a count of units in the complex or per binding partner. Turning to “BG505 NFL (native flexibly linked) HIV-1 envelope glycoprotein trimer from CHO-M cells”, the stoichiometry N in assay [1], in assay [2] and in assay [3] was 3 throughout.

The substance “BG505 NFL (native flexibly linked) HIV-1 envelope glycoprotein trimer from 293F cells” displayed a stoichiometry N in assay [4] of 3.
